# Data from patent US9808434B2, “Compound for treating cancer and diabetes” (CITY OF HOPE, priority 2011, dated 2017).
# Substrate: O=C(Nc1cc(Cl)cc(Cl)c1)Nc1cc(Cl)cc(Cl)c1
# Assay: Kinetics of GST-P using COH-SR4 as a substrate
# Assay type: biochemical
# Settings: other: COH-SR4 as substrate, 1 mM GSH, pH 6.5, 340 nm, 37.0 °C
# Procedure: The cDNA of GSTP was cloned into the prokaryotic expression plasmid vector, pET30a(+) (Novagen), creating the GSTP-pET30a(+) plasmid free of extraneous sequences. Bam H1 and Xhol restriction sites were used for cloning. This plasmid was transfected into E. coli BL21 (DE3). Protein was expressed in E. coli BL21 (DE3) grown at 37° C. Once the OD600 reached 0.6 protein was induced with 0.4 mM IPTG.
# All purification steps were carried out at 4° C. unless otherwise specified. All buffers were prepared fresh and filter sterilized. Briefly, bacteria was lysed in 10 mM K-PO4 buffer pH 7.0 containing 1.4 mM β-mercaptoethanol (Buffer A) and 100 μM PMSF followed by sonication at 50 rpm for 3 times at 30 sec each. […] The supernatant was mixed with GSH-affinity resin for coupling for overnight at 4° C. The unbound proteins were washed with Buffer B until OD at 280 nm is zero. Bound protein (purified GSTP) was eluted with 50 mM Tris-HCl, pH 9.6 containing 1.4 mM β-mercaptoethanol. Elutes protein was dialyzed against Buffer A for overnight and the GSTP protein concentration was checked by Bradford's assay.
# Reaction systems were prepared by mixing COH-SR4 (50 μL, various final concentrations of 0˜10 μM), 100 μL of 10 mM GSH (GSH solution in GST assay buffer, pH 6.5), 10 μL of GSTP enzyme (0.52 mg/mL) and having 840 μL GST assay buffer (100 mM K-PO4 buffer, pH 6.5). […]
protein,measurement,value
"GST-P (Homo sapiens) (protein, made in house; host or cells: E. coli BL21 (DE3)) MPPYTVVYFPVRGRCAALRMLLADQGQSWKEEVVTVETWQEGSLKASCLYGQLPKFQDGDLTLYQSNTILRHLGRTLGLYGKDQQEAALVDMVNDGVEDLRCKYISLIYTNYEAGKDDYVKALPGQLKPFETLLSQNQGGKTFIVGDQISFADYNLLDLLLIHEVLAPGCLDAFPLLSAYVGRLSARPKLKAFLASPEYVNLPINGNGKQ",Km,40 µM
